Measured values from paper PMC3675580, “Stabilization, Characterization, and Selective Removal of Cystatin C Amyloid Oligomers*” (The Journal of Biological Chemistry, 2013).
Where “and” joins values, the source holds several entries; their conditions need not be identical. Equal values may be shown once. Values belong to the molecule of their own block, whether it stands above or below them.

How the values were obtained:
[1] = target: Mammalian legumain (EC 3.4.22.34) (pig)
[2] = target: stab1 cystatin C (L47C/G69C), disulfide-stabilized monomer (human) (UniProt P01034); experiment: MALDI-TOF MS; isolated oligomers 1 mg/ml in 150 mM ammonium bicarbonate pH 7.8 (nonreducing), matrix 2,6-dihydroxyacetophenone
[3] = target: stab1 cystatin C (L47C/G69C), disulfide-stabilized monomer (human) (UniProt P01034); experiment: native gel or EMSA; agarose gel electrophoresis under native conditions; stab1 cystatin C 0.2 mg/ml (15 uM) in PBS pH 7.4, 0.5 or 1.0 M GdnHCl, 1:1 molar equivalents of DTT, 24 h at 40 C
[4] = target: the molecule itself; experiment: SDS-PAGE in 0.1% SDS of unboiled, nonreduced samples; 1 mg/ml in 50 mM sodium acetate pH 4.0, 100 mM NaCl, 48 C, 900 rpm, 4 h; gel run at 4 C, silver-stained
[5] = target: the molecule itself; experiment: SEC; SEC at the end of the purification of refolded L68Q cystatin C

inhibitory capacity toward legumain (fluorogenic substrate Z-Ala-Ala-Asn-AMC), equal mass concentrations [1]: 93%
Molecule: stabilized cystatin C decamer (stab1, L47C/G69C) (from UniProt P01034 27-146) (complex)

inhibitory capacity toward legumain (fluorogenic substrate Z-Ala-Ala-Asn-AMC), equal mass concentrations [1]: 102%
Molecule: stabilized cystatin C dimer (stab1, L47C/G69C) (from UniProt P01034 27-146) (complex)

stoichiometry N (monomeric subunits) [2]: 2
Molecule: stab1 cystatin C (L47C/G69C), disulfide-stabilized monomer (from UniProt P01034 27-146)

stoichiometry N (monomeric subunits) [2]: 4 and 3
stoichiometry N [3]: 2
Molecule: stab1 cystatin C (L47C/G69C), disulfide-stabilized monomer (from UniProt P01034 27-146) (natural protein)

inhibitory capacity toward legumain (fluorogenic substrate Z-Ala-Ala-Asn-AMC), equal mass concentrations [1]: 99%
Molecule: stabilized cystatin C trimer (stab1, L47C/G69C) (from UniProt P01034 27-146) (complex)

inhibitory capacity toward legumain (fluorogenic substrate Z-Ala-Ala-Asn-AMC), equal mass concentrations [1]: 55%
B1: stabilized cystatin C high molecular weight oligomers (stab1, L47C/G69C) (complex)
chain: SSPGKPPRLVGGPMDASVEEEGVRRALDFAVGEYNKASNDMYHSRACQVVRARKQIVAGVNYFLDVELCRTTCTKTQPNLDNCPFHDQPHLKRKAFCSFQIYAVPWQGTMTLSKSTCQDA
modifications: intermolecular disulfide bridges (the paper: most likely Cys47-Cys69)

B2: human wild type cystatin C (natural protein, UniProt P01034 27-146, looked up)
chain: SSPGKPPRLVGGPMDASVEEEGVRRALDFAVGEYNKASNDMYHSRALQVVRARKQIVAGVNYFLDVELGRTTCTKTQPNLDNCPFHDQPHLKRKAFCSFQIYAVPWQGTMTLSKSTCQDA
notes: cystatin C, human, wild type; Mr 13,343; also called wt cystatin C; wt monomer; source: E. coli periplasmic extract, purified (ion-exchange, SEC), lyophilized
binding result [4]: binds

B3: L68Q cystatin C (natural protein, human, UniProt P01034 27-146, looked up)
chain: SSPGKPPRLVGGPMDASVEEEGVRRALDFAVGEYNKASNDMYHSRALQVVRARKQIVAGVNYFLDVEQGRTTCTKTQPNLDNCPFHDQPHLKRKAFCSFQIYAVPWQGTMTLSKSTCQDA
notes: cystatin C, human, hereditary cystatin C amyloid angiopathy variant L68Q; also called L68Q cystatin C variant; disease-associated L68Q variant
stoichiometry N [5]: 2
